pKd: −log10 of the molar value.
Columns and labels:
[1] = biological target: WT-Sx4-GST (C-terminally GST-tagged Syntaxin 4 cytosolic domain) (UniProt P70452); test: ITC; MicroCal VP-ITC; syntaxins (WT-Sx4 298 µM, Phos-Sx4 308.25 µM) titrated with SNAP23 (64 µM); nonlinear least squares fit
[2] = biological target: Phos-Sx4-GST (C-terminally GST-tagged Sx4 cytosolic domain harbouring two mutations Y115E and Y251E) (UniProt P70452); test: as above
[3] = biological target: m4 + m5 (ternary SNARE complex with His-SNAP23 and GST-VAMP2); test: in vitro SNARE complex assembly assay (SDS-PAGE, anti-Sx4 immunoblot, ImageJ quantification); conditions: 5 µM Sx4-GST variant with equimolar GST-VAMP2 and His-SNAP23, 4 °C, 20 min; parent: est. 1.0; read off a plot

pKd [1] | pKd [2] | ratio to parent [3] | Substance
5.25 | 5.91 |  | His-SNAP23 (N-terminally His-tagged SNAP23) (from UniProt O09044 1-210) (natural protein)
 |  | 1.5 | WT-Sx4-GST (C-terminally GST-tagged Syntaxin 4 cytosolic domain) (from UniProt P70452) L173A; E174A

From article PMC10741561
